{"source": "patent US20240132559", "about": "“COMPOSITIONS AND METHODS FOR MODULATING MYC EXPRESSION” (FLAGSHIP PIONEERING INNOVATIONS V, INC., published 2024)", "target": "ZF9-MQ1 (synthetic)", "sequence (chain, as listed by the source)": "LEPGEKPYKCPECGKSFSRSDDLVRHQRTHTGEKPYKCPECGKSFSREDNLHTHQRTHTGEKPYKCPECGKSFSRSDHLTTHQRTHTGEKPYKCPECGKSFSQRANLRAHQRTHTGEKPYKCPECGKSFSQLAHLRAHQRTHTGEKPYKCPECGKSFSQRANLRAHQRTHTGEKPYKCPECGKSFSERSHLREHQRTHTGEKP", "test": "cell_activity; MYC mRNA down-regulation in A549 and HCC95, 72 h", "details": "tags: NLS, MQ1 DNA methyltransferase, HA"}
{"binder": "ZF9 target site in MYC promoter (dsDNA) DNA 1: AGCAAAAGAAAATGGTAGGCG DNA 2: CGCCTACCATTTTCTTTTGCT", "values": [{"measurement": "EC50", "result": 0.08, "unit": "ug/ml LNP/mRNA"}]}
